Measured values as given in article PMC7806768.

Biological target: R.CcoLI(D225N) mutant (Campylobacter coli)
Assay: SEC; Superdex 200 HR 10/30; samples 2.3 uM; 10 mM MES pH 6.0, 200 mM NaCl, 1 mM TCEP; size estimated against marker proteins (aldolase, conalbumin, chymotrypsinogen A, ribonuclease A)

Substance: R.CcoLI(D225N) mutant (enzyme)
- stoichiometry N: 2
